The results in this text go back to patent publication US20240417469A1 (CONCEPT TO MEDICINE BIOTECH, published 2024).

Assay [1] deals with T1, human CD3 on cells (human PBMC; Jurkat TCR/CD3 NFAT reporter cells) (human, UniProt P07766 23-207; P04234 22-171; P09693 23-182). The assay can be described thus: cell-based or functional assay.
In assay [2] the target is T2, recombinant CD3D&E protein (human CD3-his tag) (human, UniProt P04234 22-105; P07766 23-126, limits assumed).
T2 construct: Analyte in Biacore; also called CD3D&E-His; CD3d&ε-His
The assay can be described thus: SPR Biacore, Ab captured on Protein A.

The target of assay [3] is T3, human CD3 protein (human, UniProt P07766 23-126; P04234 22-105).
T3 construct: ELISA coating protein; also called Human CD3D & CD3E Heterodimer Protein
As to the kind of experiment: ELISA, plate-coated CD3.

Assay [4] deals with T1, human CD3 on cells (human PBMC; Jurkat …). The assay can be described thus: cell-based or functional assay. This is another data set of the same source.
The next assay deals with T4, cynomolgus CD3 protein (cynomolgus).
T4 construct: ELISA coating protein
As to the kind of experiment: ELISA, plate-coated CD3. A general note: ELISA stands for enzyme-linked immunosorbent assay.

In assay [5] the target is T3, human CD3 protein. As to the kind of experiment: ELISA, plate-coated CD3. The source holds these as a separate data set.
The target of assay [6] is T5, cynomolgus CD3 on cynomolgus PBMC (cynomolgus, UniProt Q95LI5 22-198; Q95LI8 22-171; Q95LI7 23-181).
T5 construct: whole, on cells; Native CD3 complex on cynomolgus T cells; also called cyno PBMC; cynoPBMCs
The assay can be described thus: FACS on cynomolgus PBMC, PE anti-human IgG Fc secondary, geometric mean fluorescence.

In assay [7] the target is T2, recombinant CD3D&E protein (human …). The assay can be described thus: SPR Biacore, Ab captured on Protein A. This is another data set of the same source.

Several values for one entry are separate records, joined by “and”; a condition that tells them apart may be missing. Identical values can stand only once. Like-named read-outs stand apart in the source and are kept apart here.

T4 sequence (Q95LI5 22-117, chain 1 of 2): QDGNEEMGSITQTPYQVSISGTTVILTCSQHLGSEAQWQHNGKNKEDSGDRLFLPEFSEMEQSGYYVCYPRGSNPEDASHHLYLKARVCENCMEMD
T4 sequence (Q95LI8 22-105, chain 2 of 2, further chain): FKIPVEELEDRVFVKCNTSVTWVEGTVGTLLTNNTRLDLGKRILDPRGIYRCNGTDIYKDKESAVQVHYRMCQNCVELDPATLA
T3 sequence (P07766 23-126 limits assumed, chain 1 of 2): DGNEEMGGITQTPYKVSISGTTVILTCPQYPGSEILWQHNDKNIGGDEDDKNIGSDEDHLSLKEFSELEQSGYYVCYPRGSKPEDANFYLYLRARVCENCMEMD
T3 sequence (P04234 22-105 limits assumed, chain 2 of 2): as the sequence (Q95LI8 22-105, chain 2 of 2, further chain) above, with V5I, K15N, V20I, T32S, N33D, N34I, A64T, N74S, L83V counted along it
T5 sequence (Q95LI5 22-198, chain 1 of 3): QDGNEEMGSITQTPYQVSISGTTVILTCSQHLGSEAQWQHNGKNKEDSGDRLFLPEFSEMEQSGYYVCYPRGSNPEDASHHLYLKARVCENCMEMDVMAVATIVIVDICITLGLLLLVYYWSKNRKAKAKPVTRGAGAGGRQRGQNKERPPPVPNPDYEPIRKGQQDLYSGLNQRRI
T5 sequence (Q95LI8 22-171, chain 2 of 3): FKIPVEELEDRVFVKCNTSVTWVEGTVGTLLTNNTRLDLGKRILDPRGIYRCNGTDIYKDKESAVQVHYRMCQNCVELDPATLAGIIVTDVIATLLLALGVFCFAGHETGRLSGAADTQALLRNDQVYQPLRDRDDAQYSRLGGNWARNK
T5 sequence (Q95LI7 23-181, chain 3 of 3): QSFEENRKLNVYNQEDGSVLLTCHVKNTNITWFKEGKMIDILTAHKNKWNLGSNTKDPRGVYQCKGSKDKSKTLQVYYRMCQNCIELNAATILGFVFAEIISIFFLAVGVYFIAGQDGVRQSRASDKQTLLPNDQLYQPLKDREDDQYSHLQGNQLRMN
T1 sequence (P07766 23-207, chain 1 of 3): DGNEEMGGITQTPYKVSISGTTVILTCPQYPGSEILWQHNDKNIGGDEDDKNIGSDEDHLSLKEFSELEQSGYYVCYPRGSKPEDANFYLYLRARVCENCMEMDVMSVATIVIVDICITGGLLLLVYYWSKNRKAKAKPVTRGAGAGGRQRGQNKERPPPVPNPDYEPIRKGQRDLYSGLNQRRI
T1 sequence (P04234 22-171, chain 2 of 3): as the sequence (Q95LI8 22-171, chain 2 of 3) above, with V5I, K15N, V20I, T32S, N33D, N34I, A64T, N74S, L83V, R141H counted along it
T1 sequence (P09693 23-182, chain 3 of 3): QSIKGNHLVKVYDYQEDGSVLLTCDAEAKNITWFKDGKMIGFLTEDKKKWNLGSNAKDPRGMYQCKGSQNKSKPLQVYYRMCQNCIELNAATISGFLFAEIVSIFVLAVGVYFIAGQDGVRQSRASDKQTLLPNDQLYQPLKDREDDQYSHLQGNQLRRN
T2 sequence (P04234 22-105 limits assumed, chain 1 of 2): as the sequence (Q95LI8 22-105, chain 2 of 2, further chain) above, with V5I, K15N, V20I, T32S, N33D, N34I, A64T, N74S, L83V counted along it
T2 sequence (P07766 23-126 limits assumed, chain 2 of 2): as the sequence (P07766 23-126 limits assumed, chain 1 of 2) above

B1: Hu155A9B1-13 (antibody, V domains shown)
VH: EVQLQESGPGLVKPSETLSLTCTVSGGSISSYNVHWIRQPPGKGLEWIGRVRYNGDTSYNSALKSRVTISVDTSKNQFSLKLSSVTAADTAVYYCARGPYGGSSEPLFDYWGQGTMVTVSS
VL: DIQMTQSPSSLSASVGDRVTITCKASQNINKYLNWFQQKPGKAPRLLIYTTNNLQTGIPSRFSGSGSGTDFTLTISSLQPEDFATYFCLQHNSGYTFGQGTKLEIK
notes: humanized mAb
With B1, in assay [1], the “% of SP34” value turned out to be 18.4% and the Emax worked out at 1060. Also, in assay [2], the Kd amounted to 12.6 nM, the off-rate constant (koff) is 0.00354 s⁻¹ and the kon turned out to be 280000 M⁻¹ s⁻¹. The molecule further gave an EC50 with human CD3 protein [3] of 124 ng/mL. The “CD3-NFAT Activity by CD3 mAb” value in assay [4] is at most 50 % SP34.

B2: Hu155A9B1-3 (antibody, V domains shown)
VH: EVQLQESGPGLVKPSETLSLTCTVSGGSISSYNVHWVRQPPGKGLEWMGRVRYNGDTSYNSALKSRLTISRDTSKNQFSLKLSSVTAADTAVYYCARGPYGGSSEPLFDYWGQGTMVTVSS
VL: DIQMTQSPSSLSASVGDRVTITCKASQNINKYLNWYQQKPGKAPRLLIYTTNNLQTGVPSRFSGSGSGTDFTLTISSLQPEDFATYYCLQHNSGYTFGQGTKLEIK
notes: humanized mAb
Regarding B2, in assay [1], the “% of SP34” value is 12.8% and the Emax amounted to 648. In assay [2], the Kd worked out at 18 nM, the koff is 0.00667 s⁻¹ and the kon amounted to 370000 M⁻¹ s⁻¹. Further, a half-maximal response in the assay with human CD3 protein [3] (EC50) required 32.2 ng/mL. Moreover, in assay [4], the “CD3-NFAT Activity by CD3 mAb” value is at most 50 % SP34.

B3: 155A9B1 chimeric mAb (antibody, V domains shown)
VH: QVQLKESGPGLVQPSQTLSLTCTVSGFSLTSYNVHWVRQPPGKGLEWMGRVRYNGDTSYNSALKSRLSISRDTSKNQAFLKMNSLQIDDTGTYYCTRGPYGGSSEPLFDYWGQGVMVTVSS
VL: DIKMTQSPSFLSASVGDRVTINCKASQNINKYLNWFQQKLGEAPRLLIYTTNNLQTGIPSRFSGSGSGTDFTLTISSLQPEDVATYFCLQHNSGYTFGAGTKLELK
notes: Chimeric mAb
As for B3, the Kd in assay [2] and in assay [7] was 36.1 nM in each case. Moreover, the dissociation rate constant (koff) in assay [2] and in assay [7] was 0.00207 s⁻¹ throughout. Further, the kon in assay [2] and in assay [7] was 57200 M⁻¹ s⁻¹ in each case. The EC50 in the assay with cynomolgus CD3 protein is 2.33 ng/mL; with human CD3 protein [5], 2.15 ng/mL; in the assay with human CD3 protein [3], 2.7 ng/mL and 2.54 ng/mL and 2.34 ng/mL. The binding result in assay [6] was “binds”.

B4: Hu155A9B1-16 (antibody, V domains shown)
VH: EVQLQESGPGLVKPSETLSLTCTVSGGSISSYNVHWVRQPPGKGLEWMGRVRYNGDTSYNSALKSRLTISRDTSKNQFSLKLSSVTAADTAVYYCTRGPYGGSSEPLFDYWGQGTMVTVSS
VL: DIQMTQSPSSLSASVGDRVTITCKASQNINKYLNWFQQKPGKAPRLLIYTTNNLQTGIPSRFSGSGSGTDFTLTISSLQPEDFATYFCLQHNSGYTFGQGTKLEIK
notes: humanized mAb; also called 155z16
With B4, in assay [1], the “% of SP34” value worked out at 21.6% and the Emax came to 1240. Besides, in assay [2], the dissociation constant Kd is 95.6 nM, the koff turned out to be 0.0165 s⁻¹ and the kon was determined as 173000 M⁻¹ s⁻¹. Also, it took 7.28 ng/mL to reach a half-maximal effect in the assay with human CD3 protein [3] (EC50). In addition, the “CD3-NFAT Activity by CD3 mAb” value in assay [4] is at most 50 % SP34.

B5: Hu155A9B1-17 (antibody, V domains shown)
VH: EVQLQESGPGLVKPSETLSLTCTVSGFSISSYNVHWVRQPPGKGLEWMGRVRYNGDTSYNSALKSRLTISRDTSKNQASLKLSSVTAADTAVYYCTRGPYGGSSEPLFDYWGQGTMVTVSS
VL: DIQMTQSPSSLSASVGDRVTITCKASQNINKYLNWFQQKPGKAPRLLIYTTNNLQTGIPSRFSGSGSGTDFTLTISSLQPEDFATYFCLQHNSGYTFGQGTKLEIK
notes: humanized mAb
Take B5: in assay [1], the “% of SP34” value amounted to 76% and the Emax stood at 4370. Further, in assay [2], the Kd was 43.6 nM, the off-rate (koff) was 0.00307 s⁻¹ and the kon worked out at 70400 M⁻¹ s⁻¹. This molecule registered an EC50 with human CD3 protein [3] of 3.07 ng/mL. Besides, the “CD3-NFAT Activity by CD3 mAb” value in assay [4] was over 50 % SP34.

B6: Hu155A9B1-14 (antibody, V domains shown)
VH: EVQLQESGPGLVKPSETLSLTCTVSGGSISSYNVHWVRQPPGKGLEWIGRVRYNGDTSYNSALKSRVTISRDTSKNQFSLKLSSVTAADTAVYYCARGPYGGSSEPLFDYWGQGTMVTVSS
VL: DIQMTQSPSSLSASVGDRVTITCKASQNINKYLNWFQQKPGKAPRLLIYTTNNLQTGIPSRFSGSGSGTDFTLTISSLQPEDFATYFCLQHNSGYTFGQGTKLEIK
notes: humanized mAb
For the molecule B6, in assay [1], the “% of SP34” value came out at 19.1% and the Emax was 1100. Besides, in assay [2], the Kd came to 79.2 nM, the koff is 0.0187 s⁻¹ and the kon came to 236000 M⁻¹ s⁻¹. The molecule further registered an EC50 in the assay with human CD3 protein [3] of 5.66 ng/mL. In addition, the “CD3-NFAT Activity by CD3 mAb” value in assay [4] was at most 50 % SP34.

B7: 153A6B1 chimeric mAb (antibody, V domains shown)
VH: QVQLKESGPGLVQPSQTLSLTCTVSGFSLTSYNIHWVRQPPGKGLEWMGRIRYNGDTSYNSALKSRLSISRDTSKNQVFLKMSSLQTDDTGTYYCTRGPYGGSREPLFDYWGQGVMVTVSS
VL: DIKMTQSPSFLSAAVGDRVTINCKTSQNINKYLNWFQQKLGAAPKLLIYTTNNLQTGIPSRFSGSGSGTDFTLTISSLQPEDVATYFCLQHGSGYTFGAGTKLELK
notes: Chimeric mAb of the hybridoma clone; also called 153A6B1C8
For B7, the Kd in assay [2] and in assay [7] was 8.69 nM each time. For the same molecule, the koff in assay [2] and in assay [7] was 0.000694 s⁻¹ throughout. In addition, the on-rate (kon) in assay [2] and in assay [7] was 79900 M⁻¹ s⁻¹ each time. For the same molecule, the EC50 with cynomolgus CD3 protein was 2.88 ng/mL; with human CD3 protein [5] it was 2.79 ng/mL; with human CD3 protein [3] it was 3.42 ng/mL and 2.91 ng/mL and 2.74 ng/mL. The binding result in assay [6] is “binds”.

B8: Hu155A9B1-6 (antibody, V domains shown)
VH: EVQLQESGPGLVKPSETLSLTCTVSGFSLTSYNVHWVRQPPGKGLEWMGRVRYNGDTSYNSALKSRLTISRDTSKNQASLKLSSVTAADTAVYYCTRGPYGGSSEPLFDYWGQGTMVTVSS
VL: DIQMTQSPSSLSASVGDRVTITCKASQNINKYLNWYQQKPGKAPRLLIYTTNNLQTGVPSRFSGSGSGTDFTLTISSLQPEDFATYYCLQHNSGYTFGQGTKLEIK
notes: humanized mAb
Regarding B8, in assay [1], the “% of SP34” value was determined as 84.8% and the Emax was 4300. Moreover, in assay [2], the Kd was 62.1 nM, the koff turned out to be 0.00593 s⁻¹ and the kon is 95400 M⁻¹ s⁻¹. This molecule yielded an EC50 with human CD3 protein [3] of 4.16 ng/mL. The “CD3-NFAT Activity by CD3 mAb” value in assay [4] was over 50 % SP34.

B9: Hu155A9B1-15 (antibody, V domains shown)
VH: EVQLQESGPGLVKPSETLSLTCTVSGGSISSYNVHWVRQPPGKGLEWMGRVRYNGDTSYNSALKSRLTISRDTSKNQFSLKLSSVTAADTAVYYCARGPYGGSSEPLFDYWGQGTMVTVSS
VL: DIQMTQSPSSLSASVGDRVTITCKASQNINKYLNWFQQKPGKAPRLLIYTTNNLQTGIPSRFSGSGSGTDFTLTISSLQPEDFATYFCLQHNSGYTFGQGTKLEIK
notes: humanized mAb
In the case of B9, in assay [1], the “% of SP34” value was 20.1% and the Emax stood at 1150. In addition, in assay [2], the Kd amounted to 53.5 nM, the off-rate (koff) worked out at 0.0152 s⁻¹ and the kon came out at 285000 M⁻¹ s⁻¹. The molecule further showed an EC50 with human CD3 protein [3] of 6.51 ng/mL. For the same molecule, the “CD3-NFAT Activity by CD3 mAb” value in assay [4] was at most 50 % SP34.

B10: Hu155A9B1-18 (antibody, V domains shown)
VH: EVQLQESGPGLVKPSETLSLTCTVSGFSLTSYNVHWVRQPPGKGLEWMGRVRYNGDTSYNSALKSRLTISRDTSKNQASLKLSSVTAADTAVYYCTRGPYGGSSEPLFDYWGQGTMVTVSS
VL: DIQMTQSPSSLSASVGDRVTITCKASQNINKYLNWFQQKPGKAPRLLIYTTNNLQTGIPSRFSGSGSGTDFTLTISSLQPEDFATYFCLQHNSGYTFGQGTKLEIK
notes: humanized mAb
Turning to B10, in assay [1], the “% of SP34” value turned out to be 74% and the Emax is 4250. For the same molecule, in assay [2], the Kd worked out at 51.4 nM, the koff is 0.00291 s⁻¹ and the kon amounted to 56600 M⁻¹ s⁻¹. In the assay with human CD3 protein [3], this molecule came in with an EC50 of 1.95 ng/mL. Besides, the “CD3-NFAT Activity by CD3 mAb” value in assay [4] was over 50 % SP34.

B11: 192A7B9 chimeric mAb (antibody, V domains shown)
VH: QVQLKESGPGLVQPSQTLSLNCTVSGFSLTSYNVHWVRQPPGKGLEWMGRMRYNGDTSYNSALKSRLSISRDTSKNQVFLKMNSLQTDDTGTYYCTRGPRGGYYSALFDYWGQGVMVTVSS
VL: DIQMTQSPSFLSASVGDRVTINCKASQNINRYLNWYQQKLGDAPKVLISIANSLQTGIPSRFSGSGSGTDFTLTISSLQPEDVATYFCLQHNSWYTFGAGTKLELK
notes: Chimeric mAb
Take B11: the Kd in assay [2] and in assay [7] was 6.34 nM each time. In addition, the koff in assay [2] and in assay [7] was 0.000442 s⁻¹ in each case. Also, the kon in assay [2] and in assay [7] was 69700 M⁻¹ s⁻¹ in each case. Besides, the EC50 is 2.16 ng/mL with cynomolgus CD3 protein; 1.91 ng/mL with human CD3 protein [5]; 2.53 ng/mL and 2.85 ng/mL and 2.16 ng/mL and 2.3 ng/mL with human CD3 protein [3]. The binding result in assay [6] is “binds”.

By Kd is commonly meant the equilibrium constant for the complex coming apart. A word on the koff: it is the rate constant with which the complex falls apart. One may read the kon as the rate constant with which the complex forms. For orientation: EC50 means the concentration that produces a half-maximal response.
